doi:10.1101/2025.08.24.672003, “Structural characterization of MAM01 and other cost-effective engineered monoclonal antibodies for malaria prevention” (bioRxiv, 2025)
Ends that are not written are not given here.

T1: PfCSP minor repeat region peptide, biotinylated (NVDPNANPNVDPNANPNVDP) (Plasmodium falciparum, biotinylated (end not stated))
T1 peptide: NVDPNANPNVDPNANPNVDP

T2: PfCSP N-terminal junctional region peptide, biotinylated (KQPADGNPDPNANPNV) (Plasmodium falciparum, also: biotin label, end not given here)
T2 peptide: KQPADGNPDPNANPNV

T3: PfCSP major repeat region peptide NPNA3, biotinylated (Plasmodium falciparum, also: biotin label, end not given here)
T3 peptide: NPNANPNANPNA

T4: PfCSP junctional region peptide, biotinylated (NPDPNANPNVDPNANP) (Plasmodium falciparum, also: biotin label, end not given here)
T4 peptide: NPDPNANPNVDPNANP

T5: PfCSP N-terminal junctional region peptide, biotinylated (KQPADGNPDPNANPNV) (Plasmodium falciparum 3D7, also: biotinylated, end not given here)
T5 construct: Plasmodium falciparum circumsporozoite protein (PfCSP), N-terminal junctional region; source: synthetic peptide, bought: Innopep Inc
T5 chain: KQPADGNPDPNANPNV

T6: PfCSP junctional region peptide, biotinylated (NPDPNANPNVDPNANP) (Plasmodium falciparum 3D7, also: biotinylated, end not given here)
T6 construct: Plasmodium falciparum circumsporozoite protein (PfCSP), junctional region; source: synthetic peptide, bought: Innopep Inc
T6 chain: NPDPNANPNVDPNANP


What was measured:
[1] = target: T1, PfCSP minor repeat region peptide, …; test: BLI
[2] = target: T2, PfCSP N-terminal junctional region …; test: BLI
[3] = target: T3, PfCSP major repeat region peptide …; test: BLI
[4] = target: T4, PfCSP junctional region peptide, …; test: BLI
[5] = target: T5, PfCSP N-terminal junctional region …; test: BLI; biotinylated peptides (10 ug/mL) loaded on streptavidin biosensors; Fabs in solution at 200, 100, 50, 25, 12.5 nM; kinetics buffer 1X PBS, 0.01% BSA, 0.002% Tween 20; 300 s association, 300 s dissociation; Octet Red; 1:1 global fit; settings: both partners purified
[6] = target: T6, PfCSP junctional region peptide, …; test: as above; settings: both partners purified

Binder	Kd [1] [nM]	Kd [2] [nM]	Kd [3] [nM]	Kd [4] [nM]	binding result [5]	Kd [6] [nM]
Fab MS-1805 (engineered AB007088) (Fab, V domains shown) VH: QVQLVESGGGVVQPGRSLRLSCAASGFTFNTYGMHWVRQAPGKGLEWVAIIWYDGSQKYYADSVQGRFTISRDNHKNTLYLQMNSLRAEDTAVYFCVRVRFSVGPHGSAFDLWGQGTMVTVSS VL: GVQMTQSPSTLSASVGDRVTLTCRASQSISSWLAWYQQKPGKAPKLLIYDASSLESGVPSRFSGSGSGTEFTLTISSLQPDDFATYYCQQYNSYSFWTFGQGTKVEIK	28	23	25	20	–	–
Fab 7088 (antigen-binding fragment of mAb AB007088) (Fab, V domains shown) VH: QVQLVESGGGVVQPGRSLRLSCAASGFAFNTYGMHWVRQTPGKGLEWVAIIWYDGSQKYYADSVQGRFIISRDNHKNTLSLQMNGLRAEDTAVYFCVRVRFSVGPHGSAFDLWGQGTMVIVSS VL: GVQMTQSPSTLSASVGDRVTLTCRASQSISSWLAWYQQKPGKAPKLLIYDASSLESGVPSRFSGSGSGTEFTLTISSLQPDDFATYYCQQYNSYSFWTFGQGTKVEIK	20	15	15	16	–	–
Fab 224 (antigen-binding fragment of mAb AB000224) (Fab, V domains shown, Fab 224 heavy chain (IGHV3-49) is in PDB 6WFY (cited) and PDB 9NOB (apo, deposited here); Fab 224 light chain (IGLV1-40) is in PDB 6WFY (cited) and PDB 9NOB (apo, deposited here); IGHV3-49/IGLV1-40; the expression methods name only the Fab genes of MAM01, 7088 and MS-1805, not Fab 224) VH: EVQLVESGGGLVQPGRSLRLPCTASGFSFGDHAMSWVRQAPGKGLEWVGFIRKTTYGATTHYAAAVRGRFTISRDDSKSIVYLQMNSLKTEDTAVYFCTRVQLDYGPGYQYYGMDVWGQGTTVTVSS VL: ESVLTQPPSVSGAPGQRVTISCTGMNSNIGAGYDVYWYQQLPGRAPKLLIYGNSNRPSGVPDRFSGSRSGTSASLAITGLQAEDEADYYCQSYDTSLNGWAFGGGTKLTVL	2.9	–	3.5	72	no binding (tested: 200 nM)	–
Fab MAM01 (engineered AB000224) (Fab, V domains shown, as the heavy chain of m1 (Fab 224, PDB 6WFY) with the stated framework changes (Kabat numbering); as the light chain of m1 (Fab 224, PDB 6WFY) with the stated changes (Kabat numbering); Fab only; the LS mutations of the Fc are not part of it; also called MS-1797; MAM01 Fab; source: ExpiCHO cells, purified (HiTrap Protein G HP, size exclusion chromatography)) VH: EVQLVESGGGLVQPGRSLRLSCTASGFSFGDHAMSWVRQAPGKGLEWVGFIRKTTYGATTHYAAAVRGRFTISRDDSKSTVYLQMNSLKAEDTAVYFCARVQLDYGPGYQYYGMDVWGQGTTVTVSS VL: QSVLTQPPSVSGAPGQRVTISCTGMNSNIGAGYDVYWYQQLPGTAPKLLIYGNSNRPSGVPDRFSGSRSGTSASLAITGLQAEDEADYYCQSYDTSLNGWAFGGGTKLTVL	3.5	–	4.1	–	no binding (tested: 200 nM)	108
